± gives the uncertainty stated by the source.

The text below walks through data of the Human Domainome abundance scans (Beltran et al. 2025).

The data set can be described thus: abundance fitness (aPCA) (normalised: wild type 0, dead -1); higher = more abundant; growth selection in yeast, the domain comes from the species named. The following applies: Homo sapiens.
As for “E3 ubiquitin-protein ligase NEDD4 A851D, P46934”, the abundance fitness is -0.043 ± 0.04.

As for “E3 ubiquitin-protein ligase NEDD4 E869I, P46934”, the abundance fitness was -0.137 ± 0.071. Substance “E3 ubiquitin-protein ligase NEDD4 F857Y, P46934” returned an abundance fitness of 0.013 ± 0.048.

On to “E3 ubiquitin-protein ligase NEDD4 H850V, P46934”, for which the abundance fitness was -0.155 ± 0.055. Take “E3 ubiquitin-protein ligase NEDD4 I859V, P46934”: the abundance fitness is -0.074 ± 0.065.

For the substance “E3 ubiquitin-protein ligase NEDD4 K844D, P46934”, the abundance fitness was -0.053 ± 0.031. With “E3 ubiquitin-protein ligase NEDD4 K864R, P46934”, the abundance fitness was -0.042 ± 0.053. The same measure for “E3 ubiquitin-protein ligase NEDD4 N853D, P46934”: -0.116 ± 0.071; for “E3 ubiquitin-protein ligase NEDD4 P852S, P46934”: -0.058 ± 0.055.

“E3 ubiquitin-protein ligase NEDD4 R849K, P46934” had an abundance fitness of 0.052 ± 0.062. On to “E3 ubiquitin-protein ligase NEDD4 T863Q, P46934”, for which the abundance fitness was -0.511 ± 0.1.

For “E3 ubiquitin-protein ligase NEDD4 V848I, P46934”, the abundance fitness is -0.103 ± 0.075.
